Values quoted from earlier work in PMC3955120 (Journal of chromatography. B, Analytical technologies in …, 2013).
Where no end group is shown, it is not given here.

Details: humans, i.v. infusion of kisspeptin-54, RIA, monoexponential decline

kisspeptin-54 (GTSLSPPPESSGSPQQPGLSAPHSRQIPAPQGAVLVQREKDLPNYNWNSFGLRF-NH2; ends and bridges not checked; UniProt Q15726 68-121, looked up)
half-life of post steady-state plasma kisspeptin-IR: 27.6 min
